# Literature values, collected in patent US20260193255A1, “7-AZAINDOLE COMPOUNDS, PREPARATION METHOD THEREFOR, AND USE THEREOF” (Fudan University, priority 2022, published 2026).
# System: cachectic patients
# Conditions: 30 mg/kg, Phase II; cited from earlier work
molecule,measurement,value
"Bimagrumab: antibody inhibitor of ActRIIB under development by Novartis (antibody, chains of the INN, looked up, V domains shown) VH: QVQLVQSGAEVKKPGASVKVSCKASGYTFTSSYINWVRQAPGQGLEWMGTINPVSGSTSYAQKFQGRVTMTRDTSISTAYMELSRLRSDDTAVYYCARGGWFDYWGQGTLVTVSS VL: QSALTQPASVSGSPGQSITISCTGTSSDVGSYNYVNWYQQHPGKAPKLMIYGVSKRPSGVSNRFSGSKSGNTASLTISGLQAEDEADYYCGTFAGGSYYGVFGGGTKLTVL",Increase of muscle volume,5.0-7.8%
